From publication PMC10404244, “Control of motor landing and processivity by the CAP-Gly domain in the KIF13B tail” (Nature Communications, 2023)
Where a chain is given by its changes, count along the chain named. In names and notes the source's numbering stands.

B1: human KIF13B tail-truncated (a.a. 1–679), C-terminal sfGFP-StrepII (domain or fragment, UniProt Q9NQT8 1-679, looked up)
chain: MGDSKVKVAVRIRPMNRRETDLHTKCVVDVDANKVILNPVNTNLSKGDARGQPKVFAYDHCFWSMDESVKEKYAGQDIVFKCLGENILQNAFDGYNACIFAYGQTGSGKSYTMMGTADQPGLIPRLCSGLFERTQKEENEEQSFKVEVSYMEIYNEKVRDLLDPKGSRQTLKVREHSVLGPYVDGLSKLAVTSYKDIESLMSEGNKSRTVAATNMNEESSRSHAVFKITLTHTLYDVKSGTSGEKVGKLSLVDLAGSERATKTGAAGDRLKEGSNINKSLTTLGLVISALADQSAGKNKNKFVPYRDSVLTWLLKDSLGGNSKTAMVATVSPAADNYDETLSTLRYADRAKHIVNHAVVNEDPNARIIRDLREEVEKLREQLTKAEAMKSPELKDRLEESEKLIQEMTVTWEEKLRKTEEIAQERQKQLESLGISLQSSGIKVGDDKCFLVNLNADPALNELLVYYLKEHTLIGSANSQDIQLCGMGILPEHCIIDITSEGQVMLTPQKNTRTFVNGSSVSSPIQLHHGDRILWGNNHFFRLNLPKKKKKAEREDEDQDPSMKNENSSEQLDVDGDSSSEVSSEVNFNYEYAQMEVTMKALGSNDPMQSILNSLEQQHEEEKRSALERQRLMYEHELEQLRRRLSPEKQNCRSMDRFSFHSPSAQQRLRQWAEEREATL
notes: KIF13B, human, a.a; 1–679; truncated after the predicted second coiled-coil, within the MBS domain; also called KIF13B^Δtail; KIF13^Δtail; source: Sf9 insect cells (baculovirus), purified (Strep-Tactin XT, gel filtration); not shown: sfGFP, C-terminal, kept
B2: KIF13B K414A, full-length human KIF13B with the point mutation K414A, C-terminal sfGFP-StrepII (natural protein, UniProt Q9NQT8 1-1826, looked up)
chain: MGDSKVKVAVRIRPMNRRETDLHTKCVVDVDANKVILNPVNTNLSKGDARGQPKVFAYDHCFWSMDESVKEKYAGQDIVFKCLGENILQNAFDGYNACIFAYGQTGSGKSYTMMGTADQPGLIPRLCSGLFERTQKEENEEQSFKVEVSYMEIYNEKVRDLLDPKGSRQTLKVREHSVLGPYVDGLSKLAVTSYKDIESLMSEGNKSRTVAATNMNEESSRSHAVFKITLTHTLYDVKSGTSGEKVGKLSLVDLAGSERATKTGAAGDRLKEGSNINKSLTTLGLVISALADQSAGKNKNKFVPYRDSVLTWLLKDSLGGNSKTAMVATVSPAADNYDETLSTLRYADRAKHIVNHAVVNEDPNARIIRDLREEVEKLREQLTKAEAMKSPELKDRLEESEKLIQEMTVTWEEALRKTEEIAQERQKQLESLGISLQSSGIKVGDDKCFLVNLNADPALNELLVYYLKEHTLIGSANSQDIQLCGMGILPEHCIIDITSEGQVMLTPQKNTRTFVNGSSVSSPIQLHHGDRILWGNNHFFRLNLPKKKKKAEREDEDQDPSMKNENSSEQLDVDGDSSSEVSSEVNFNYEYAQMEVTMKALGSNDPMQSILNSLEQQHEEEKRSALERQRLMYEHELEQLRRRLSPEKQNCRSMDRFSFHSPSAQQRLRQWAEEREATLNNSLMRLREQIVKANLLVREANYIAEELDKRTEYKVTLQIPASSLDANRKRGSLLSEPAIQVRRKGKGKQIWSLEKLDNRLLDMRDLYQEWKECEEDNPVIRSYFKRADPFYDEQENHSLIGVANVFLESLFYDVKLQYAVPIINQKGEVAGRLHVEVMRLSGDVGERIAGGDEVAEVSFEKETQENKLVCMVKILQATGLPQHLSHFVFCKYSFWDQQEPVIVAPEVDTSSSSVSKEPHCMVVFDHCNEFSVNITEDFIEHLSEGALAIEVYGHKINDPRKNPALWDLGIIQAKTRSLRDRWSEVTRKLEFWVQILEQNENGEYCPVEVISAKDVPTGGIFQLRQGQSRRVQVEVKSVQESGTLPLMEECILSVGIGCVKVRPLRAPRTHETFHEEEEDMDSYQDRDLERLRRKWLNALTKRQEYLDQQLQKLVSKRDKTEDDADREAQLLEMRLTLTEERNAVMVPSAGSGIPGAPAEWTPVPGMETHIPVIFLDLNADDFSSQDNLDDPEAGGWDATLTGEEEEEFFELQIVKQHDGEVKAEASWDSAVHGCPQLSRGTPVDERLFLIVRVTVQLSHPADMQLVLRKRICVNVHGRQGFAQSLLKKMSHRSSIPGCGVTFEIVSNIPEDAQGVEEREALARMAANVENPASADSEAYIEKYLRSVLAVENLLTLDRLRQEVAVKEQLTGKGKLSRRSISSPNVNRLSGSRQDLIPSYSLGSNKGRWESQQDVSQTTVSRGIAPAPALSVSPQNNHSPDPGLSNLAASYLNPVKSFVPQMPKLLKSLFPVRDEKRGKRPSPLAHQPVPRIMVQSASPDIRVTRMEEAQPEMGPDVLVQTMGAPALKICDKPAKVPSPPPVIAVTAVTPAPEAQDGPPSPLSEASSGYFSHSVSTATLSDALGPGLDAAAPPGSMPTAPEAEPEAPISHPPPPTAVPAEEPPGPQQLVSPGRERPDLEAPAPGSPFRVRRVRASELRSFSRMLAGDPGCSPGAEGNAPAPGAGGQALASDSEEADEVPEWLREGEFVTVGAHKTGVVRYVGPADFQEGTWVGVELDLPSGKNDGSIGGKQYFRCNPGYGLLVRPSRVRRATGPVRRRSTGLRLGAPEARRSATLSGSATNLASLTAALAKADRSHKNPENRKSWAS
notes: kinesin KIF13B, human, full length, point mutant K414A; molar ratio about 1:5 (mScarlet (I): sfGFP); also called KIF13BK414A-sfGFP; HsKIF13BK414A-sfGFP-StrepII; source: Sf9, purified (Strep-Tactin XT, gel filtration); for the two-colour assay Sf9 co-infected with the sfGFP-StrepII and the mScarlet-StrepII viruses; not shown: sfGFP, C-terminal, kept
B3: full-length human KIF13B (wild type), C-terminal sfGFP-StrepII (natural protein)
chain: B2 chain with A414K
notes: KIF13B, human, full-length cDNA from Transomics (BC172411); Predominantly monomeric in solution, minor dimer fraction (mass photometry); also called WT KIF13B; full-length KIF13B; source: Sf9 insect cells (baculovirus), purified (Strep-Tactin XT, gel filtration); not shown: sfGFP, C-terminal, kept
B4: full-length human KIF13B V178Q, C-terminal sfGFP-StrepII (natural protein, UniProt Q9NQT8 1-1826, looked up)
chain: B2 chain with V178Q, A414K
notes: source: Sf9 insect cells (baculovirus), purified (Strep-Tactin XT, gel filtration); not shown: sfGFP, C-terminal, kept
B5: full-length human KIF13B K414A, C-terminal sfGFP-StrepII (natural protein, UniProt Q9NQT8 1-1826, looked up)
chain: B2 chain
notes: also called KI13B^K414A; source: Sf9 insect cells (baculovirus), purified (Strep-Tactin XT, gel filtration); not shown: sfGFP, C-terminal, kept
B6: human KIF13B CAP-Gly fragment (a.a. 1685–1826), N-terminal sfGFP-StrepII (domain or fragment)
chain: QALASDSEEADEVPEWLREGEFVTVGAHKTGVVRYVGPADFQEGTWVGVELDLPSGKNDGSIGGKQYFRCNPGYGLLVRPSRVRRATGPVRRRSTGLRLGAPEARRSATLSGSATNLASLTAALAKADRSHKNPENRKSWAS
notes: KIF13B, human, a.a; 1685–1826: CAP-Gly domain and an ~80 residue unstructured C-terminal region; The sfGFP-StrepII tag is joined to the N-terminus of the fragment through a 3xGGGGS linker (pET28a); the methods hold here; also called KIF13B^CG; KIF13^CG; source: E. coli BL21-CodonPlus (DE3)-RIPL, purified (Strep-Tactin XT, HiTrap Q, Superdex 200); not shown: sfGFP, N-terminal, kept

Columns and labels:
[1] = target: the molecule itself; experiment: mass photometry; lower concentration(s) of the construct (KIF13B^Δtail: the lower of two; KIF13B^CG: low and intermediate), HP buffer pH 7.0, room temperature; monomer to dimer
[2] = target: T1, tyrosinated microtubules polymerized from recombinant human α1A/βIII tubulin (human, UniProt Q71U36 1-451; Q13509 1-450); experiment: TIRF microscopy microtubule-binding assay (standard deviation map); differentially labelled tyrosinated and detyrosinated taxol microtubules held by biotin-streptavidin in the same chamber, sfGFP motors in solution, 2 mM ATP, HP assay buffer pH 7.0; settings: both partners purified
T1 construct: human alpha-tubulin isotype α1A, fully tyrosinated; human beta-tubulin isotype βIII; Plasmids (pFAST-Dual) were gifts from A. Roll-Mecak; also called recombinant human tubulin (fully tyrosinated); not shown: His tag (from the HisTrap purification)

[3] = target: the molecule itself; experiment: two-colour single-molecule TIRF microscopy; sfGFP- and mScarlet (I)-tagged KIF13BK414A co-expressed and purified together (molar ratio ~1:5 mScarlet (I): sfGFP), seen on immobilised tyrosinated and CPA-treated detyrosinated microtubules; 2 mM ATP or 2 mM ADP
[4] = target: the molecule itself; experiment: mass photometry; 5, 25 and 100 nM protein in HP buffer (90 mM HEPES, 10 mM PIPES, 50 mM K-acetate, 2 mM Mg-acetate, 1 mM EGTA, 10% glycerol, pH 7.0), room temperature; result told over the whole range; monomer to dimer

T1 sequence (Q71U36 whole entry, chain 1 of 2): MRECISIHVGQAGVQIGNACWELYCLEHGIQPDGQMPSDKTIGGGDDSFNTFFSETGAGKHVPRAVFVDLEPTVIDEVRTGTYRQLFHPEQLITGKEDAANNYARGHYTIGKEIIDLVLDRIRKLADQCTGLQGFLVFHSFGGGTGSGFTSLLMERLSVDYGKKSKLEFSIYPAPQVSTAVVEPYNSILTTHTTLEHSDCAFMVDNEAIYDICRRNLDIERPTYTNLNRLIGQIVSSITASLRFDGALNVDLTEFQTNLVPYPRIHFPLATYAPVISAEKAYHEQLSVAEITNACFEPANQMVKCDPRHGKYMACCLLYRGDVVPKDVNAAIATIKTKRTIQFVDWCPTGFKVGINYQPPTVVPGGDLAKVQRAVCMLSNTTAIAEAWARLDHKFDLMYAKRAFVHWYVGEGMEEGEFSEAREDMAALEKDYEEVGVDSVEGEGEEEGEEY
T1 sequence (Q13509 whole entry, chain 2 of 2): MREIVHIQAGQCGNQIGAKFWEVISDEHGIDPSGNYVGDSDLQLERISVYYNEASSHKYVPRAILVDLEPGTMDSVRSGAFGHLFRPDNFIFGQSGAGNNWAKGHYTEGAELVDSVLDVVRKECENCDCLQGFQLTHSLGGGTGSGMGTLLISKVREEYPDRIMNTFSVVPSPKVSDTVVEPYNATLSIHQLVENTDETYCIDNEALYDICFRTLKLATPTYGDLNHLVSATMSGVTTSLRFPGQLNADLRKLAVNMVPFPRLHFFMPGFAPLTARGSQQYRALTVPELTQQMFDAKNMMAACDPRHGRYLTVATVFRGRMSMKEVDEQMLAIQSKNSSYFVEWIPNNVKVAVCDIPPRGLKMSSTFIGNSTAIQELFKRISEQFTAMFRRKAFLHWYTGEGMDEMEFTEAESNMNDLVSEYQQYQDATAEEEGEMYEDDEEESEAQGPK

Row | Binder | binding result [2] | binding result [4] | other results
1 | B1 | binds |  | binding result [1]: binds
2 | B2 |  |  | binding result [3]: binds
3 | B3 | binds |  | 
4 | B4 |  | binds | 
5 | B5 |  | binds | 
6 | B6 | binds |  | 
